Target: the molecule itself
Assay: cryo-EM structure

B1: full-length phytochrome from Pseudomonas aeruginosa (PaBphP) (enzyme)
chain: MTSITPVTLANCEDEPIHVPGAIQPHGALVTLRADGMVLAASENIQALLGFVASPGSYLTQEQVGPEVLRMLEEGLTGNGPWSNSVETRIGEHLFDVIGHSYKEVFYLEFEIRTADTLSITSFTLNAQRIIAQVQLHNDTASLLSNVTDELRRMTGYDRVMAYRFRHDDSGEVVAESRREDLESYLGQRYPASDIPAQARRLYIQNPIRLIADVAYTPMRVFPALNPETNESFDLSYSVLRSVSPIHCEYLTNMGVRASMSISIVVGGKLWGLFSCHHMSPKLIPYPVRMSFQIFSQVCSAIVERLEQGRIAELLRVSTERRLALARRARDADDLFGALAHPDDGIAALIPCDGALVMLGGRTLSIRGDFERQAGNVLQRLQRDPERDIYHTDNWPQPSEDSPDGGDCCGVLAIRFHRQESGWIFWFRHEEVHRIRWGGKPEKLLTIGPSGPRLTPRGSFEAWEEVVRGHSTPWSETDLAIAEKLRLDLMELCLNHAAEVDRMRQRLIAVLGHDLRNPLQSISMAAALLSSSDTRTTELRQHISASSSRMERLVSQILDMSRLQSGIGLTVNPVDTDVSQLVRQIVCETDVAYPGLVIEIAIDPQVRAVVDPDRYAQVAANLLSNARHHGLPGRPVLVTLTRQGDEVCLSVLNETSGLSEAQLANLFEPFKRESADNQRNRNGLGIGLYISQAIAQAHQGRIDVDCRDDVITFCLRLPVRQAETGSSS
modifications: biliverdin chromophore (15Z in Pr, 15E in Pfr)
  stoichiometry N: 2
